# Data taken from paper PMC11239676 (2024).
# T1: 15N-labelled NHR4 MYND domain of RUNX1T1 (UniProt Q06455 510-559, 15N-labelled)
# T1 chain: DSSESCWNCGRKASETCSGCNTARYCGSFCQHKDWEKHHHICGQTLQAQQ
# How the values were obtained:
# [1] = molecular target: T1, 15N-labelled NHR4 MYND domain of RUNX1T1; experiment: NMR; pH 7.5
# [2] = molecular target: T1, 15N-labelled NHR4 MYND domain of RUNX1T1; experiment: NMR; pH 6
Kd [1],Kd [2],Binder
370 µM,680 µM,Ac-LNQPPPPLIRPAN-NH2 [RCOR3_3 peptide (human RCOR3 residues 448-460)]
–,370 µM,Ac-TISNPPPLISSAK-NH2 [NCOR2 peptide (human NCOR2 residues 1101-1113)]
–,820 µM,Ac-TLNQPPPLLRPTL-NH2 [RCOR3_1 peptide (human RCOR3 residues 410-422)]
